Patent publication US20190389958A1 (MSM PROTEIN TECHNOLOGIES, published 2019)

T1: hCCR4 (human, UniProt P51679 1-360)
T1 construct: whole, on cells
T1 sequence (looked up): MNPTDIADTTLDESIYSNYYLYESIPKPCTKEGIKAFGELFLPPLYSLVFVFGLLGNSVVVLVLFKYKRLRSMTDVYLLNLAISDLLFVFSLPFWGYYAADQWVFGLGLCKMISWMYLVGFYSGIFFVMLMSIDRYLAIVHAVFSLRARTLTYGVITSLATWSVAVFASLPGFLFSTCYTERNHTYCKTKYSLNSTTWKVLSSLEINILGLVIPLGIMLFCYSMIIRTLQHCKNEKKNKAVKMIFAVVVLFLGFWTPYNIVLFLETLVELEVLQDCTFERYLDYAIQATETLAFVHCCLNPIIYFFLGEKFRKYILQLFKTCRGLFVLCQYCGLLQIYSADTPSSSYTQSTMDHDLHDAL

T2: hCXCR5 (human, UniProt P32302 1-372)
T2 construct: whole, on cells
T2 sequence (looked up): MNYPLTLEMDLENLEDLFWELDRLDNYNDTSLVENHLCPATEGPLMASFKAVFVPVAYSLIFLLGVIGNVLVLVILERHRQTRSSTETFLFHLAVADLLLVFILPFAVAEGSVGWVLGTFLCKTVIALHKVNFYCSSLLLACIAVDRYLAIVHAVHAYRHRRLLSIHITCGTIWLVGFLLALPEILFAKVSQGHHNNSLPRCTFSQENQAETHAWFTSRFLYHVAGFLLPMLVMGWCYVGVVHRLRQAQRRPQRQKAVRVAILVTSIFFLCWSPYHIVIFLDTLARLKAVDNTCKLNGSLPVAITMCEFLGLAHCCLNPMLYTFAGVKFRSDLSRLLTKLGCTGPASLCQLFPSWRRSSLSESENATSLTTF

T3: hCXCR3 (human, UniProt P49682 1-368)
T3 construct: whole, on cells
T3 sequence (looked up): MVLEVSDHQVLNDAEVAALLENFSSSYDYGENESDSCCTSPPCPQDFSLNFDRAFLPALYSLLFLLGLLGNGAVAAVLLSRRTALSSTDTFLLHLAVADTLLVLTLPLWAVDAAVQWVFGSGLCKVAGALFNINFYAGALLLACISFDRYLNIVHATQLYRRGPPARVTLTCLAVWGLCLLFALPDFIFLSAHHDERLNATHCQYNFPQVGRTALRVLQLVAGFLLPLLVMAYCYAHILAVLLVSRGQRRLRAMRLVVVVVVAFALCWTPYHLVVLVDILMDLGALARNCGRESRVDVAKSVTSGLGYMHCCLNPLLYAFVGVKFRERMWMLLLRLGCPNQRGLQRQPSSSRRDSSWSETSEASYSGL

T4: hCCR9 (human, UniProt P51686 1-369)
T4 construct: whole, on cells
T4 sequence (looked up): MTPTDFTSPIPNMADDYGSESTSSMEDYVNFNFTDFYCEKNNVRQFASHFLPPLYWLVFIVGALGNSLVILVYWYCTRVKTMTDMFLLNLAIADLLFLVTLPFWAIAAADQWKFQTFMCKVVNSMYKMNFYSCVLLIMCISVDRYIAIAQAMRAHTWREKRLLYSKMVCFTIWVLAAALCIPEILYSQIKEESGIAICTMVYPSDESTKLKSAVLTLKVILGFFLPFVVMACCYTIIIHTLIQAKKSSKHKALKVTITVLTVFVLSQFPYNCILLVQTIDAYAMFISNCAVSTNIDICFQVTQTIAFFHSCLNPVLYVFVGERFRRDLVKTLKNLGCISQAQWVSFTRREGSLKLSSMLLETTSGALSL


Experiments:
hCXCR7 = target: T5, hCXCR7 (human, UniProt P25106 1-362); experiment: flow cytometry, IgG 100 nM, cells over-expressing hCXCR7
T5 construct: whole, on cells
T5 sequence (P25106 whole entry): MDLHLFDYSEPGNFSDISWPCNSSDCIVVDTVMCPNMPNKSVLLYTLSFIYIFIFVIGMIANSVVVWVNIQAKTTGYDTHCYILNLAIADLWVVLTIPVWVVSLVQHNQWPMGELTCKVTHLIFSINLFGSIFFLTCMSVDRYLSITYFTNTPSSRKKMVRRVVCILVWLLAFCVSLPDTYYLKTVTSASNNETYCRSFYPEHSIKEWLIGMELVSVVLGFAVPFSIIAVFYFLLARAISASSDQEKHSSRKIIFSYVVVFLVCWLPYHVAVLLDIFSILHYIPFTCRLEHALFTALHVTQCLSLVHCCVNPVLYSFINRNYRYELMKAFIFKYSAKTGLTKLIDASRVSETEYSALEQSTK
Experimental: (§1) Cells over-expressing different GPCRs other than CXCR4 and several lines transfected to over-express CXCR4 (R1610-hCXCR4, Cf2Th-hCXCR4 and CHO-hCXCR4) were compared. Cultures were incubated with a test IgG at 100 nM in FACS buffer for 40 min at 4° C. Thereafter, cells were washed twice, stained with anti-human-Fc antibody-PE conjugate (Jackson Immunoresearch Laboratories Inc., West Grove, Pa.), washed twice in FACS buffer and then transferred to FIX buffer. Fluorescence intensities were measured by GUAVA PCA-96 at 425V (in triplicate).
(§2) The expression of GPCRs other than CXCR4 was confirmed using commercially available antibodies (positive controls). For example, a commercial anti-CXCR1 antibody was used as a positive control for confirming the expression of CXCR1 on the CXCR1-transfected CHO cells.

hCCR4 = target: T1, hCCR4; experiment: flow cytometry, IgG 100 nM, cells over-expressing hCCR4
Experimental: as §1, §2

human CXCR4 [1] = target: T6, human CXCR4 (human, UniProt P61073 1-352); experiment: flow cytometry, IgG 100 nM, Cf2Th-hCXCR4 cells
T6 construct: whole, on cells; also called hCXCR4; LESTR
T6 sequence (P61073 whole entry): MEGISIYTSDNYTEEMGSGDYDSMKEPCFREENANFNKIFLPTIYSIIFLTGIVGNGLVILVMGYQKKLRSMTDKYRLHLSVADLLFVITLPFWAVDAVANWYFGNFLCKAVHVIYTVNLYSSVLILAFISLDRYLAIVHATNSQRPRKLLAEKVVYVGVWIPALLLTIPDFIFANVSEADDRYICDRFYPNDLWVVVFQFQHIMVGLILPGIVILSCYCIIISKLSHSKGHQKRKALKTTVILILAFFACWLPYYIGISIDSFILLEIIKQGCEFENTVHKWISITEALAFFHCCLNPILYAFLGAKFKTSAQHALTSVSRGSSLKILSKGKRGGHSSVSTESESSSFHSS
Experimental: as §1

human CXCR4 [2] = target: T6, human CXCR4; experiment: cell-based or functional assay
hCXCR5 = target: T2, hCXCR5; experiment: flow cytometry, IgG 100 nM, cells over-expressing hCXCR5
Experimental: as §1, §2

hCXCR3 = target: T3, hCXCR3; experiment: flow cytometry, IgG 100 nM, cells over-expressing hCXCR3
Experimental: as §1, §2

hCCR9 = target: T4, hCCR9; experiment: flow cytometry, IgG 100 nM, cells over-expressing hCCR9
Experimental: as §1

hCXCR6 = target: T7, hCXCR6 (human, UniProt O00574 1-342); experiment: flow cytometry, IgG 100 nM, cells over-expressing hCXCR6
T7 construct: whole, on cells
T7 sequence (O00574 whole entry): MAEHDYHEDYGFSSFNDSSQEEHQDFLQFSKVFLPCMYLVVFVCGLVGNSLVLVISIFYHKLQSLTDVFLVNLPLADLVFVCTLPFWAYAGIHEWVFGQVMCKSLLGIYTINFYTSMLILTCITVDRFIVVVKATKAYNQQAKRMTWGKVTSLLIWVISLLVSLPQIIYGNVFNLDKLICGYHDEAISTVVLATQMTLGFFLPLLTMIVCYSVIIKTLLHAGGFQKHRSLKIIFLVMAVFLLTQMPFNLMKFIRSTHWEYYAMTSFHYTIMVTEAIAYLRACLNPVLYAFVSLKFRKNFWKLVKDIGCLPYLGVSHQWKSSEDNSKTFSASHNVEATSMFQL
Experimental: as §1, §2

human CXCR4 [3] = target: T6, human CXCR4; experiment: flow cytometry on Cf2-Th cells transfected with human CXCR4, IgG1 format
Experimental: A typical protocol for the fluorescent flow cytometry-based assay was as follows. Ten microliter of a purified test IgG solution or buffer as a control were added to 10 microliter of a suspension containing approximately 30,000 Cf2-Th cells transfected to express human CXCR4. After incubation on ice for 40 min, cells were washed with FACS buffer (phosphate-buffered saline (PBS), pH7.4; 2% fetal calf serum, 0.1% sodium azide) to remove unbound antibodies. Ten microliter of a solution of phycoerythrin (PE)-conjugated mouse anti-human Fc monoclonal antibody (1/20 dilution; catalog number 12-4998-82, eBioscience Inc., San Diego, Calif.) were then added to the cells, and, after a 30-min incubation on ice, cells were washed twice and then formalin-fixed (FIX buffer: PBS, pH7.4; 0.5% formaldehyde). Fixed samples were analysed by fluorescent flow cytometry using a Guava-PCA96 instrument (EMD Millipore Chemicals, Merck KGaA, Darmstadt, Germany).

Binder	MFI (hCXCR7)	MFI (hCCR4)	MFI (human CXCR4 [1])	% Inhibition of SDF-1alpha-induced chemotaxis of U937 cells (IgG at 100 nM) (human CXCR4 [2]) [%]	MFI (hCXCR5)	MFI (hCXCR3)	MFI (hCCR9)	MFI (hCXCR6)	EC50 (human CXCR4 [3]) [nM]
V62.1-R108H (antibody, human IgG1, V domains shown, Tested as an IgG (human IgG1 format); also called IgG1 V62.1 R108H) VH: not shown VL: EIVLTQSPGTLSLSPGERATLSCRASQSVSSSYLAWYQQKPGQAPRLLIYGASSRATGIPDRFSGSGSGTDFTLTISRLEPEDFAVYYCQQSDYSYPFTFGQGTKVEIKR	4	3	861	69	3	3	3	3	< 10
V62.1 (antibody, human IgG1, V domains shown, Tested as an IgG (human IgG1 format; DP47 heavy and DPK22 kappa light frameworks) made in CHO-3E7 cells; also called IgG V62.1) VH: not shown VL: EIVLTQSPGTLSLSPGERATLSCRASQSVSSSYLAWYQQKPGQAPRLLIYGASSRATGIPDRFSGSGSGTDFTLTISRLEPEDFAVYYCQQSDYSYPFTFGQGTKVEIKR	3	3	1270	76	4	3	4	3	< 10
V62.1-R108H-m80 (antibody, human IgG1, V domains shown, Tested as an IgG (human IgG1 format); also called V62.1-H-m80; V62.1-R108H-m80-Wt) VH: EVQLLESGGGLVQPGGSLRLSCAASGFTISPYSITWVRQAPGKGLEWVSQINSYNGKTYYADSVKGRFTISRDNSKNTLYLQMNSLRAEDTAVYYCARQGKTRVYGYHWHGYGSTHALDYWGQGTLVTVSS VL: EIVLTQSPGTLSLSPGERATLSCRASQSVSSSYLAWYQQKPGQAPRLLIYGASSRATGIPDRFSGSGSGTDFTLTISRLEPEDFAVYYCQQSDYSYPFTFGQGTKVEIKR	2	2	3870	75	2	2	8	7	< 10
V62.1-R108H-m47-m38 (antibody, human IgG1, V domains shown, Tested as an IgG (human IgG1 format); also called V62.1-H-m47-m38; IgG1 62.1-R108H-m47-m38) VH: EVQLLESGGGLVQPGGSLRLSCAASGFTFSSYAMSWVRQAPGKGLEWVSAISGSGGTRYADSVKGRFTISRDNSKNTLYLQMNSLRAEDTAVYYCARQGKTRVYGYHWHGYGSTHALDYWGQGTLVTVSS VL: EIVLTQSPGTLSLSPGERATLSCRASQSVSSSYLAWYQQKPGQAPRLLIYGASSRATGIPDRFSGSGSGTDFTLTISRLEPEDFAVYYCQQWSSDSVTFGQGTKVEIKR	2	2	2350	78	2	2	2	2	< 10
